{"source": "patent US11034757B2", "about": "“Combination therapies using agents that target tumor-associated stroma or tumor cells and tumor vasculature” (BIOMED VALLEY DISCOVERIES, INC., priority 2014, dated 2021)", "key": {"[1]": {"test_system": "UACC melanoma cells", "test": "TEM8 antibody efficacy in UACC melanoma model", "type": "in vivo, mouse", "conditions": "15 mg/kg, 3 times per week for 3-4 weeks; start at 50 mm^3", "method": "UACC melanoma cells were cultured and injected subcutaneously into mice. Treatment was initiated with a tumor volume of 50 mm^3, and treatment groups consisted of one of four TEM8 antibodies (M825, M830, M863, and M822), each dosed at 15 mg/kg, 3 times per week for 3-4 weeks."}, "[2]": {"test_system": "H460 non-small cell lung carcinoma xenograft", "test": "M830 in the H460 non-small cell lung carcinoma xenograft model", "type": "in vivo, mouse", "conditions": "combination partner Paclitaxel", "method": "Tumor cells were cultured in RPMI-1640 medium supplemented with 10% fetal bovine serum, 2 mM glutamine, 100 units/mL penicillin G sodium, 100 μg/mL streptomycin sulfate, and 25 μg/mL gentamicin. The tumor cells were grown in tissue culture flasks in a humidified incubator at 37° C., in an atmosphere of 5% CO2 and 95% air.\nCriteria for Regression Responses\nAnimals were monitored for regression responses.\nThe statistical tests were not adjusted for multiple comparisons.\nCultured H460 cells were harvested during exponential growth and resuspended in phosphate buffered saline at a concentration of 1×10^8 cells/mL. 1.0×10^7 tumor cells were injected subcutaneously into the flank of athymic nude mice. Animals were euthanized when tumors reached the pre-determined volume endpoint of 2000 mm^3 or on the final day (Day 88), whichever came first. […] Each treatment produced a significant survival difference versus controls (P<0.01). The median TTE for controls was 22.8 days, establishing a maximum possible TGD of 65.2 days (286%) for the 88-day study."}, "[3]": {"test_system": "MC38 colon carcinoma liver metastasis", "test": "M830 in MC38 colon carcinoma liver metastasis model", "type": "in vivo, C57BL/6 mice", "from_the_text": "C57BL/6 mice were challenged with MC38 colon carcinoma liver metastasis by intrasplenic injections of cultured cells."}}, "data": [{"molecule": "M830: anti-TEM8 monoclonal antibody (hIgG1); VH SEQ ID NO:5, VL SEQ ID NO:6 (antibody, V domains shown, TEM830 mAb VH; TEM830 mAb VL) VH: EVQLVESGGGVVQPGRSVRLSCAASGFTFSTYTMHWVRQAPGKGLEWVAIISNDGSNKYYADPVRGRFTISRDNSKNTLYLQMNSLRAEDTAVYYCVRGSSWYRGNWFDPWGQGTLVTVSS VL: DIQMTQSPSSLSASVGDRVTIACRASQTISRYLNWYQQKPGKAPKLLIYAASSLQSGVSSRFSGSGSGTEFTLTISSLQPEDFATYFCQQTYSPPITFGQGTRLEIKR", "values": [{"measurement": "effect on tumor growth in the UACC melanoma model", "setting": "[1]", "value": "effective at slowing tumor growth"}, {"measurement": "regression (at Day 21, vs. vehicle column)", "setting": "[2]", "value": "(−61%"}, {"measurement": "effect on survival", "setting": "[3]; P=0.0001", "value": "significantly improved the survival"}, {"measurement": "median survival", "setting": "[3]; vehicle 11 days", "value": 17, "unit": "days"}]}]}
